From patent publication US20230265151A1, “GIP/GLP1 CO-AGONIST COMPOUNDS” (priority 2020, published 2023)

T1: human GIP receptor (human) (UniProt P48546)
T1 sequence (looked up): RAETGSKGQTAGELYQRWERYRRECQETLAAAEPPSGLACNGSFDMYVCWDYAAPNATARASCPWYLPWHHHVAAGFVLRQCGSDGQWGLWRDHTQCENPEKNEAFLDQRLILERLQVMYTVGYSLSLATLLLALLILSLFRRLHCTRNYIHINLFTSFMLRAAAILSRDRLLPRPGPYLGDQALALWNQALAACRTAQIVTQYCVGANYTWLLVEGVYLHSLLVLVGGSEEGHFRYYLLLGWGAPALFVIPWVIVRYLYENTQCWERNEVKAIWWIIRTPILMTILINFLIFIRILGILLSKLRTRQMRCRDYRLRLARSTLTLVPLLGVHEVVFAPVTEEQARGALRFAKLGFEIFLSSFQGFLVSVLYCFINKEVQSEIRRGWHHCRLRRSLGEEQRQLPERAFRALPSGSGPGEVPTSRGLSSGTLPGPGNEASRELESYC

T2: human GIP receptor (human, UniProt P48546 22-466)
T2 sequence (looked up): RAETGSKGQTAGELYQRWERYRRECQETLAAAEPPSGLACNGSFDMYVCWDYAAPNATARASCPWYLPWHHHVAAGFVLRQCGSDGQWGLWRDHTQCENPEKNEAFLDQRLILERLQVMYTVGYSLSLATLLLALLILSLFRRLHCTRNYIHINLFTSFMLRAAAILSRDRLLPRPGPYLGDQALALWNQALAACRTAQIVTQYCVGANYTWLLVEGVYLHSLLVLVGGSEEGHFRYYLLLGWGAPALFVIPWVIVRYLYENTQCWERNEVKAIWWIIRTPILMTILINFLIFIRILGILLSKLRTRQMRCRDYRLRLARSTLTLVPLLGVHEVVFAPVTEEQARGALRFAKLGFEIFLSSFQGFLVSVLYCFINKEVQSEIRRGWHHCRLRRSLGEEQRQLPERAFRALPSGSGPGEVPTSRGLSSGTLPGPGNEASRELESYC


Key:
Test in all cases: cell-based or functional assay
[1] = target: human glucagon receptor (human) (UniProt P47871)
[2] = target: T1, human GIP receptor (human)
hGLP-1R = hGLP-1R (Homo sapiens, UniProt P43220)
human GLP-1 receptor = human GLP-1 receptor (human, UniProt P43220 24-463)
human GIP receptor = target: T2, human GIP receptor

Binder	cAMP EC50 [1] [nM]	cAMP EC50 [2] [nM]	cAMP Emax [2] [%]	cAMP EC50 (hGLP-1R) [nM]	cAMP Emax (hGLP-1R) [%]	cAMP EC50 (1.0% HSA) (human GLP-1 receptor) [nM]	cAMP EC50 (1.0% HSA) (human GIP receptor) [nM]	cAMP Emax (1.0% HSA) (human GIP receptor) [%]
YXEGTXTSDXXIXLDXKAQXEFIXXLIKGGPSSGAPPPS (Y-Aib-EGT-αMeF(2F)-TSD-4Pal-Aib-I-αMeL-LD-Orn-K((2-[2-(2-Amino-ethoxy)-ethoxy]-acetyl)-Aoc-CO-(CH2)12-CO2H)AQ-Aib-EFI-(D-Glu)-αMeY-LIK(((2-[2-(2-Amino-ethoxy)-ethoxy]-acetyl)-Aoc-CO-(CH2)12-CO2H)GGPSSGAPPPS-NH2)) [Example 465]	> 9950	0.0174	94.9	0.413	98.6	73.2	3.63	94.4
YXEGTXTSDXXIXLDXKAQXKFIXXLIXGGPSSGAPPPS (Y-Aib-EGT-αMeF(2F)-TSD-4Pal-Aib-I-αMeL-LD-Orn-K((2-[2-(2-Amino-ethoxy)-ethoxy]-acetyl)2-(γ-Glu)-CO-(CH2)12-CO2H)AQ-Aib-K((2-[2-(2-Amino-ethoxy)-ethoxy]-acetyl)2-(γ-Glu)-CO-(CH2)12-CO2H)FI-(D-Glu)-αMeY-LI-Orn-GGPSSGAPPPS-NH2) [Example 406]	> 9950	0.00896	101	0.351	98.5	9.21	0.527	
YXEGTXTSDXXIXLDXKAQXEFIXXLIKGGPSSGAPPPS (Y-Aib-EGT-αMeF(2F)-TSD-4Pal-Aib-I-αMeL-LD-Orn-K((2-[2-(2-Amino-ethoxy)-ethoxy]-acetyl)-(γ-Glu)-CO-(CH2)10-CH3)AQ-Aib-EFI-(D-Glu)-αMeY-LIK((2-[2-(2-Amino-ethoxy)-ethoxy]-acetyl)-(γ-Glu)-CO-(CH2)10-CH3)GGPSSGAPPPS-NH2) [Example 427]	> 9950	0.0132	95.9	0.206	109	25.1	2.04	92.4
YXEGTXTSDXXIXLDXKAQXEFIXXLIKGGPSSGAPPPS (Y-Aib-EGT-αMeF(2F)-TSD-4Pal-Aib-I-αMeL-LD-Orn-K((2-[2-(2-Amino-ethoxy)-ethoxy]-acetyl)2-(10-(4-carboxyphenoxy)decanoyl))AQ-Aib-EFI-(D-Glu)-αMeY-LIK((2-[2-(2-Amino-ethoxy)-ethoxy]-acetyl)2-(10-(4-carboxyphenoxy)decanoyl))GGPSSGAPPPS-NH2) [Example 395]	> 9950	0.0127	93.1	0.377	90.8	6.26	0.327	57.8
YXEGTXTSDXXIXLDXKAQXKFIXXLIXGGPSSGAPPPS (Y-Aib-EGT-αMeF(2F)-TSD-4Pal-Aib-I-αMeL-LD-Orn-K((2-[2-(2-Amino-ethoxy)-ethoxy]-acetyl)2-(γ-Glu)-(10-(4-carboxyphenoxy)decanoyl))AQ-Aib-K((2-[2-(2-Amino-ethoxy)-ethoxy]-acetyl)2-(γ-Glu)-(10-(4-carboxyphenoxy)decanoyl))FI-(D-Glu)-αMeY-LI-Orn-GGPSSGAPPPS-NH2) [Example 408]	> 9950	0.00888	99.7	0.227	102	5.92	0.299	
YXEGTXTSDXXIXLDXKAQXKFIXXLIXGGPSSGAPPPS (Y-Aib-EGT-αMeF(2F)-TSD-4Pal-Aib-I-αMeL-LD-Orn-K((2-[2-(2-Amino-ethoxy)-ethoxy]-acetyl)2-(γ-Glu)-CO-(CH2)10-CH3)AQ-Aib-K((2-[2-(2-Amino-ethoxy)-ethoxy]-acetyl)2-(γ-Glu)-CO-(CH2)10-CH3)FI-(D-Glu)-αMeY-LI-Orn-GGPSSGAPPPS-NH2) [Example 413]	> 9950	0.0146	101	0.234	96.9	5.47	0.422	
YXEGTXTSDXXIXLDXKAQXEFIXXLIKGGPSSGAPPPS (Y-Aib-EGT-αMeF(2F)-TSD-4Pal-Aib-I-αMeL-LD-Orn-K((2-[2-(2-Amino-ethoxy)-ethoxy]-acetyl)3-(γ-Glu)-CO-(CH2)10-CH3)AQ-Aib-EFI-(D-Glu)-αMeY-LIK((2-[2-(2-Amino-ethoxy)-ethoxy]-acetyl)3-(γ-Glu)-CO-(CH2)10-CH3)GGPSSGAPPPS-NH2) [Example 423]	> 9950	0.00658	104	0.0721	105	4.74	0.294	89.7
YXEGTXTSDXXIXLDXKAQXEFIXXLIKGGPSSGAPPPS (Y-Aib-EGT-αMeF(2F)-TSD-4Pal-Aib-I-αMeL-LD-Orn-K((2-[2-(2-Amino-ethoxy)-ethoxy]-acetyl)2-(γ-Glu)-CO-(CH2)12-CO2H)AQ-Aib-EFI-(D-Glu)-αMeY-LIK((2-[2-(2-Amino-ethoxy)-ethoxy]-acetyl)2-(γ-Glu)-CO-(CH2)12-CO2H)GGPSSGAPPPS-NH2) [Example 358]	> 10100	0.0137	99.6	0.773	107	65.3	2.06	86.2
YXEGTXTSDXXIXLDXKAQXEFIXXLIKGGPSSGAPPPS (Y-Aib-EGT-αMeF(2F)-TSD-4Pal-Aib-I-αMeL-LD-Orn-K((2-[2-(2-Amino-ethoxy)-ethoxy]-acetyl)2-CO-(CH2)12-CO2H)AQ-Aib-EFI-(D-Glu)-αMeY-LIK((2-[2-(2-Amino-ethoxy)-ethoxy]-acetyl)2-CO-(CH2)12-CO2H)GGPSSGAPPPS-NH2) [Example 387]	> 9950	0.0137	102	0.32	101	4.4	0.278	93
YXEGTXTSDXXIXLDXKAQXEFIXXLIKGGPSSGAPPPS (Y-Aib-EGT-αMeF(2F)-TSD-4Pal-Aib-I-αMeL-LD-Orn-K((2-[2-(2-Amino-ethoxy)-ethoxy]-acetyl)-(γ-Glu)-(10-(4-carboxyphenoxy)decanoyl))AQ-Aib-EFIe-αMeY-LIK((2-[2-(2-Amino-ethoxy)-ethoxy]-acetyl)-(γ-Glu)-(10-(4-carboxyphenoxy)decanoyl))GGPSSGAPPPS-NH2) [Example 361]	> 9950	0.0121	107	0.58	98.2	43	1.44	88.8
YXEGTXTSDXXIXLDXKAQXKFIXXLIXGGPSSGAPPPS (Y-Aib-EGT-αMeF(2F)-TSD-4Pal-Aib-I-αMeL-LD-Orn-K((2-[2-(2-Amino-ethoxy)-ethoxy]-acetyl)3-(γ-Glu)-CO-(CH2)10-CH3)AQ-Aib-K((2-[2-(2-Amino-ethoxy)-ethoxy]-acetyl)3-(γ-Glu)-CO-(CH2)10-CH3)FI-(D-Glu)-αMeY-LI-Orn-GGPSSGAPPPS-NH2) [Example 433]	> 9950	0.00972	94	0.128	102	2.63	0.136	
